Data published in patent publication US20230002480A1.

Experiments:
Assay in all cases: cell-based or functional assay
[1] = biological target: HIV-1 Env of pseudovirus 9004SS_A3_4 (HIV-1)
[2] = biological target: HIV-1 Env of pseudovirus SC422661.8 (HIV-1)
[3] = biological target: HIV-1 Env of pseudovirus Ce0682_E4 (HIV-1)
[4] = biological target: HIV-1 Env of pseudovirus CNE58 (HIV-1)
[5] = biological target: HIV-1 Env of pseudovirus CAP210.2.00.E8 (HIV-1)
[6] = biological target: HIV-1 Env of pseudovirus WITO4160.33 (HIV-1)
[7] = biological target: HIV-1 Env of pseudovirus Ce1086_B2 (HIV-1)
[8] = biological target: HIV-1 Env of pseudovirus 3365.v2.c2 (HIV-1)
[9] = biological target: HIV-1 Env of pseudovirus Q769.d22 (HIV-1)
[10] = biological target: HIV-1 Env of pseudovirus 249M B10 (HIV-1)
[11] = biological target: HIV-1 Env of pseudovirus HIV-16055-2.3 (HIV-1)
[12] = biological target: HIV-1 Env of pseudovirus ZM53M.PB12 (HIV-1)
[13] = biological target: HIV-1 Env of pseudovirus Ce2010_F5 (HIV-1)
[14] = biological target: HIV-1 Env of pseudovirus Ce0393_C3 (HIV-1)
[15] = biological target: HIV-1 Env of pseudovirus ZM109F.PB4 (HIV-1)
[16] = biological target: HIV-1 Env of pseudovirus ZM197M.PB7 (HIV-1)
[17] = biological target: HIV-1 Env of pseudovirus TRJO4551.58 (HIV-1)
[18] = biological target: HIV-1 Env of pseudovirus BF1266.431a (HIV-1)
[19] = biological target: HIV-1 Env of pseudovirus 62357_14_D3_4589 (HIV-1)
[20] = biological target: HIV-1 Env of pseudovirus 1056_10_TA11_1826 (HIV-1)
[21] = biological target: HIV-1 Env of pseudovirus ZM249M.PL1 (HIV-1)
[22] = biological target: HIV-1 Env of pseudovirus CNE19 (HIV-1)

## 10-1074 (antibody)
[1]
  IC50, titer in TZM.bl cells: 0.011 µg/mL
  IC80, titer in TZM.bl cells: 0.03 µg/mL
[2]
  IC50, titer in TZM.bl cells: 0.091 µg/mL
  IC80, titer in TZM.bl cells: 0.418 µg/mL
[3]
  IC50, titer in TZM.bl cells: > 50 µg/mL
  IC80, titer in TZM.bl cells: > 50 µg/mL
[4]
  IC50, titer in TZM.bl cells: 0.267 µg/mL
  IC80, titer in TZM.bl cells: 0.968 µg/mL
[5]
  IC50, titer in TZM.bl cells: > 50 µg/mL
  IC80, titer in TZM.bl cells: > 50 µg/mL
[6]
  IC50, titer in TZM.bl cells: 0.185 µg/mL
  IC80, titer in TZM.bl cells: 2.11 µg/mL
[7]
  IC50, titer in TZM.bl cells: > 50 µg/mL
  IC80, titer in TZM.bl cells: > 50 µg/mL
[8]
  IC50, titer in TZM.bl cells: 0.131 µg/mL
  IC80, titer in TZM.bl cells: 0.45 µg/mL
[9]
  IC50, titer in TZM.bl cells: > 50 µg/mL
  IC80, titer in TZM.bl cells: > 50 µg/mL
[10]
  IC50, titer in TZM.bl cells: > 50 µg/mL
  IC80, titer in TZM.bl cells: > 50 µg/mL
[11]
  IC50, titer in TZM.bl cells: > 50 µg/mL
  IC80, titer in TZM.bl cells: > 50 µg/mL
[12]
  IC50, titer in TZM.bl cells: > 50 µg/mL
  IC80, titer in TZM.bl cells: > 50 µg/mL
[13]
  IC50, titer in TZM.bl cells: > 50 µg/mL
  IC80, titer in TZM.bl cells: > 50 µg/mL
[14]
  IC50, titer in TZM.bl cells: > 50 µg/mL
  IC80, titer in TZM.bl cells: > 50 µg/mL
[15]
  IC50, titer in TZM.bl cells: > 50 µg/mL
  IC80, titer in TZM.bl cells: > 50 µg/mL
[16]
  IC50, titer in TZM.bl cells: > 50 µg/mL
  IC80, titer in TZM.bl cells: > 50 µg/mL
[17]
  IC50, titer in TZM.bl cells: 0.17 µg/mL
  IC80, titer in TZM.bl cells: 0.634 µg/mL
[18]
  IC50, titer in TZM.bl cells: > 50 µg/mL
  IC80, titer in TZM.bl cells: > 50 µg/mL
[19]
  IC50, titer in TZM.bl cells: > 50 µg/mL
  IC80, titer in TZM.bl cells: > 50 µg/mL
[20]
  IC50, titer in TZM.bl cells: 0.038 µg/mL
  IC80, titer in TZM.bl cells: 0.272 µg/mL
[21]
  IC50, titer in TZM.bl cells: > 50 µg/mL
  IC80, titer in TZM.bl cells: > 50 µg/mL
[22]
  IC50, titer in TZM.bl cells: 50 µg/mL
  IC80, titer in TZM.bl cells: > 50 µg/mL
